According to patent US10933132B2, “Combination of epigenetic factors and bispecific compounds targeting CD33 and CD3 in the treatment of myeloid leukemia” (AMGEN RESEARCH (MUNICH) GMBH, priority 2013, dated 2021):

System: KG1α AML cells
Test: G-CSF up-regulation of CD33 on AML cell lines, flow cytometry
Format: cell-based
Conditions: 10 days; for CD33 MFI Ratio: KG1α, untreated 16.5
Description: AML cell lines OCI-AML3 and KG1α were seeded in 24-well plates at 5×10^5 cells/ml on day 0. Cells were either left untreated (UT) or treated with 200 ng/ml (C1) or 2000 ng/ml (C2) G-CSF (Peprotech) for 10 days. G-CSF was freshly added to the cultures biweekly. On day 10, cells were harvested and analyzed for changes in CD33 surface expression by flow cytometry.

B1: G-CSF: glycoprotein cytokine that stimulates the bone marrow to produce granulocytes and stem cells (Peprotech) (protein, UniProt P09919 31-207, looked up)
Granulocyte …: TPLGPASSLPQSFLLKCLEQVRKIQGDGAALQEKLVSECATYKLCHPEELVLLGHSLGIPWAPLSSCPSQALQLAGCLSQLHSGLFLYQGLLQALEGISPELGPTLDTLQLDVADFATTIWQQMEELGMAPALQPTQGAMPAFASAFQRRAGGVLVASHLQSFLEVSYRVLRHLAQP
KG1α AML cells, 200 and 2000 ng/ml
  upregulation of CD33 (in words): low upregulation
C1 = 200 ng/ml G-CSF
  CD33 MFI Ratio: 17.9
C2 = 2000 ng/ml G-CSF
  CD33 MFI Ratio: 19.2
